A word on the koff: it is the rate constant with which the complex falls apart. A higher koff goes with a short-lived complex.

Where only a bound is given, the exact number is not on record here.

What all share (conditions): both partners purified
Assay [1] deals with T1, Complement component C5 (Homo sapiens, UniProt P01031).
T1 construct: Complement component C5, human, beta chain of the processed serum protein; Complement component C5, human, alpha chain of the processed serum protein; In the FRET assays C5 carried an amine-reactive terbium chelate (dye to protein 4:1); in SPR it was amine-coupled to a CM5 chip; The C5 used for immunisation was bought from CompTech; also called human C5; C5-Tb
T1 sequence (P01031 whole entry, looked up): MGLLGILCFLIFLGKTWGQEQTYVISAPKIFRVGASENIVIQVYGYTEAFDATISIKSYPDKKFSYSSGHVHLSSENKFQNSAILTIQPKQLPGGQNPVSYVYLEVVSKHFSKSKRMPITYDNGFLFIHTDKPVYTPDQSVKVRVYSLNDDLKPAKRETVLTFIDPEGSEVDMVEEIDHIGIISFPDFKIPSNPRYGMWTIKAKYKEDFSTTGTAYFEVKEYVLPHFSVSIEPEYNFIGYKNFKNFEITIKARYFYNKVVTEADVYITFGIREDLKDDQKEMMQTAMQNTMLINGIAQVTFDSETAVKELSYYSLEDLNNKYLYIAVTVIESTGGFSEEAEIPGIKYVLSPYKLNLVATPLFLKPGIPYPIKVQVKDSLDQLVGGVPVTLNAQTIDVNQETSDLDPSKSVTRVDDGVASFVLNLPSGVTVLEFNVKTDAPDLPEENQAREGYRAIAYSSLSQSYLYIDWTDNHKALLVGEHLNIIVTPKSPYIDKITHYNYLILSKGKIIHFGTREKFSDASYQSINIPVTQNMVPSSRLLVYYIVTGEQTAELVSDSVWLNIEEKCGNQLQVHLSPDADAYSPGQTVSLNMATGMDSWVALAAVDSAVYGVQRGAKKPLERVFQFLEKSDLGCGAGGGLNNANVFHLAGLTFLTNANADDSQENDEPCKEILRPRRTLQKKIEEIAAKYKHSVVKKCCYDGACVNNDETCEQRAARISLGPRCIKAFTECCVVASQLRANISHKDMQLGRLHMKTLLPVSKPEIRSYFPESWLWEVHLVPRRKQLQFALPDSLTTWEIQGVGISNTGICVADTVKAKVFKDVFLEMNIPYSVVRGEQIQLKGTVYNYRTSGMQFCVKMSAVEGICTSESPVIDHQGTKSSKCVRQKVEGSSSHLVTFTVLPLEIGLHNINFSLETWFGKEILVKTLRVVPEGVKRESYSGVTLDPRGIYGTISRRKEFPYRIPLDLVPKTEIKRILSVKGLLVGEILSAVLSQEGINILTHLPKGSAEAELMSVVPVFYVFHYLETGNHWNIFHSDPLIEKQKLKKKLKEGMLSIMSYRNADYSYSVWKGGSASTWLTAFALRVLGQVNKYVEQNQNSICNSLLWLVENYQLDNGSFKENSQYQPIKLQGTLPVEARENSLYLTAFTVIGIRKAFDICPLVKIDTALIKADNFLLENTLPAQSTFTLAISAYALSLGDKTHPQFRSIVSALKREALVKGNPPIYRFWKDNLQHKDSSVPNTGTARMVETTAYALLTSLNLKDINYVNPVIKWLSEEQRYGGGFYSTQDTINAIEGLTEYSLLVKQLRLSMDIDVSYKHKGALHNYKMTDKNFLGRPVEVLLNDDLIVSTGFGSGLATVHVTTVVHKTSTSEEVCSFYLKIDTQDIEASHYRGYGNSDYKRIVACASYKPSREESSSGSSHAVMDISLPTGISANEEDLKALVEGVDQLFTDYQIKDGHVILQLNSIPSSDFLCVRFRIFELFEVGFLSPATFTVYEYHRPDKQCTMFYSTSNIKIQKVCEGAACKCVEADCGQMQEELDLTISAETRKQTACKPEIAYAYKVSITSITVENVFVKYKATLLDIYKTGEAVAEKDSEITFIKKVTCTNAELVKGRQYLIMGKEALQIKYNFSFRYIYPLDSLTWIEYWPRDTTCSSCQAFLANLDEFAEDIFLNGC
Nature of the assay: SPR; Biacore 8K single-cycle kinetics; C5 amine-coupled to CM5 (minimal immobilisation, 100-160 RU; 50-85 RU for PGT121-K149); PGT121 knob fusion proteins as analytes, 1 μM to 1.37 nM in HBS-EP; 40 μL/min (100 μL/min for K149); dissociation 10,000 s; 1:1 model; mean of 3 experiments. A general note: In SPR one partner is held on a chip, and binding of the other changes the refractive index at the surface.

Assay [2] addresses T2, human complement component C3 (Homo sapiens, UniProt P01024).
T2 construct: Complement component C3, human, beta chain of the processed serum protein; Complement component C3, human, alpha chain of the processed serum protein; source: bought: CompTech
Nature of the assay: SPR; Biacore single-cycle kinetics counter screen; C3 amine-coupled to CM5 (minimal immobilisation, 40-55 RU); PGT121 knob fusion proteins as analytes.

Assay [3] has as its target T1, Complement component C5. The assay can be described thus: FRET or BRET; steady state FRET; 1 nM terbium-labelled C5; titration of AlexaFluor 647-labelled PGT121 knob fusion protein in HBS-EP, with and without 1 μM unlabelled C5; 24 hours; apparent KD (KD app), geomean of 3 experiments.

T2 sequence (P01024 whole entry, looked up): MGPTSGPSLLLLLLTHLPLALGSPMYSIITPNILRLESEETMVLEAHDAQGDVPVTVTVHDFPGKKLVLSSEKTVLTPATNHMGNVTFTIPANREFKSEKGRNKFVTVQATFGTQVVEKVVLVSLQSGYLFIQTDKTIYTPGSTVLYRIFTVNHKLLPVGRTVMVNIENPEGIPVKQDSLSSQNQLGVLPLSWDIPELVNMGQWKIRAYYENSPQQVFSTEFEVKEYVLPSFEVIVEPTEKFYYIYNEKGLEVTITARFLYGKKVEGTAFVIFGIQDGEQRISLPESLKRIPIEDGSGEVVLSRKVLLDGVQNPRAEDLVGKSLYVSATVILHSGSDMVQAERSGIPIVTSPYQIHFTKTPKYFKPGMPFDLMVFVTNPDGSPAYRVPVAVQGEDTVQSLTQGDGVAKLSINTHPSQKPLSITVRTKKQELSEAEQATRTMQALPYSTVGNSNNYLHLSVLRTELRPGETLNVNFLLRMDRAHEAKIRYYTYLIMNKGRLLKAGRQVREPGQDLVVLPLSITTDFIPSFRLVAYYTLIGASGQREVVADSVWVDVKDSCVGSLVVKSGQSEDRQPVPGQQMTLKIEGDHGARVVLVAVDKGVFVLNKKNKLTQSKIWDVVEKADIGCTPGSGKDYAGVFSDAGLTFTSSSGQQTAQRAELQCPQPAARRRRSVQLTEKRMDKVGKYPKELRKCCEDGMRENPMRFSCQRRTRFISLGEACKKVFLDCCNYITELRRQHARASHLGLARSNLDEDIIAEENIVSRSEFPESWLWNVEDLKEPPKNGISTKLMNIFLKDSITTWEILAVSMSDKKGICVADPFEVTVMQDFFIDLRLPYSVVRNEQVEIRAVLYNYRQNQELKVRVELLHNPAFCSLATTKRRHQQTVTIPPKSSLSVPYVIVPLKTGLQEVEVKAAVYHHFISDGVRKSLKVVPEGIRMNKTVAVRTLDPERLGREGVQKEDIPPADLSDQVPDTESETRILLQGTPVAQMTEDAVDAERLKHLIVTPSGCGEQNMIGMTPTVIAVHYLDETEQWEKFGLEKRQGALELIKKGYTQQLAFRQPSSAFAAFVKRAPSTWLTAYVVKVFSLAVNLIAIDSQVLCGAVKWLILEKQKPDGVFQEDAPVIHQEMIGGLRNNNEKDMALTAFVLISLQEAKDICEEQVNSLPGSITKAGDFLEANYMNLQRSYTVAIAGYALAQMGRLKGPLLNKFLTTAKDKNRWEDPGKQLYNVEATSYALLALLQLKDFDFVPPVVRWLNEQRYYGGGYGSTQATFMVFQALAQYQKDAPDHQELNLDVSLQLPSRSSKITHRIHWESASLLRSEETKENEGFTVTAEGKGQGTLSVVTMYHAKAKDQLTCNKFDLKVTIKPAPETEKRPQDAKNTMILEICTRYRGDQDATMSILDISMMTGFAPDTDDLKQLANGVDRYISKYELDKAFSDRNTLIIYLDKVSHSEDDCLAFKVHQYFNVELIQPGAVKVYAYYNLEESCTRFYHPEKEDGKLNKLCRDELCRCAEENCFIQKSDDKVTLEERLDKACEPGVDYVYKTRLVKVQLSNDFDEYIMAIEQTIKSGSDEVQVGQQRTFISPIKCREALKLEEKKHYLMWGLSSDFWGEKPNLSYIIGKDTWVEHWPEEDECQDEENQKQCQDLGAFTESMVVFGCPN

B1: PGT121-K136 fusion protein (Fab)
VH: QMQLQESGPGLVKPSETLSLTCSVSGASISDSYWSWIRRSPGKGLEWIGYVHKSGDTNYSPSLKSRVNLSLDTSKNQVSLSLVAATAADSGKYYCARTLHGRRIYGSENLYFQGTCPDNYREVDGCDPYDCCLTTWCTNSYCTRYIENLYFQGSEWFTYFYMDVWGNGTQVTVSS
VL: QSVLTQPPDISVAPGETARISCGEKSLGSRAVQWYQHRAGQAPSLIIYNNQDRPSGIPERFSGSPDSPFGTTATLTITSVEAGDEADYYCHIWDSRVPTKWVFGGGTTLTVL
notes: light chain of the human Fab PGT121, as the light chain of m4; Purified on a nickel column, so a His tag is surmised; also called PGT121 Fab-knob domain fusion protein (K136); source: Expi293F, transient co-transfection of heavy and light chain, purified from supernatant (Hi-Trap Nickel excel)
B1: the koff with Complement component C5 [1] was below 1e-05 s⁻¹. Moreover, in assay [2], the binding result is “no binding (tested: 1 μM)”. Moreover, the Kd with Complement component C5 [3] came out at 40 nM.

B2: PGT121-K149 fusion protein (Fab)
VH: QMQLQESGPGLVKPSETLSLTCSVSGASISDSYWSWIRRSPGKGLEWIGYVHKSGDTNYSPSLKSRVNLSLDTSKNQVSLSLVAATAADSGKYYCARTLHGRRIYGSENLYFQGSCPDGFSYRSWDDFCCPMVGRCLAPRNGSENLYFQGSEWFTYFYMDVWGNGTQVTVSS
VL: B1 VL
notes: light chain of the human Fab PGT121, as the light chain of m4; Purified on a nickel column, so a His tag is surmised; also called K149-PGT121 construct; source: Expi293F, transient co-transfection of heavy and light chain, purified from supernatant (Hi-Trap Nickel excel)
For B2, the binding result in assay [2] was “no binding (tested: 1 μM)”. In addition, the Kd in the assay with Complement component C5 [3] stood at 66 nM.

The values are drawn from PMC7498065 (PLoS Biology, 2020).
